Assay [1] deals with T1, B/MY04 N135R EHA2 (Influenza B virus B/Malaysia/2506/2004, UniProt P03461 374-538).
T1 chain: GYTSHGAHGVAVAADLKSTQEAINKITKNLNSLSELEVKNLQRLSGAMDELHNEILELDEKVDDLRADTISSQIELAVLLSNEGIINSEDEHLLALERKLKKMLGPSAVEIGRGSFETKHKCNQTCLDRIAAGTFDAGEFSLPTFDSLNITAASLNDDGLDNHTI
Nature of the assay: ELISA, rIgG (FIG. 13). Background: In an ELISA, binding on a coated surface is turned into a signal by an enzyme label.

Assay [2] deals with T1, B/MY04 N135R EHA2. Nature of the assay: ELISA, rIgG (FIG. 20A).

B1: C1_ID26079-156194 (antibody, V domains shown)
VH: QVQLVQSGAEVKKPGASVKVSCKASGYTFTGNYMHWVRQAPGQGLEWMGWINPDSGGTNYAQRFQGRVTMTRDTSISTAYMELSRLTSDDTAMYYCARVMLRSSGFDSWGQGTLVTVSS
VL: QSALIQPASVSGSPGQSITISCTGTSSDVGTYNLVSWYQQHPGKVPKLMIYEASERPSGVSNRFSGSKSGNTASLTISGLQAEDEADYYCCSYAGNSAWVFGGGTKLTVL
B1: the binding result in the assay with B/MY04 N135R EHA2 [1] was “no binding”.

B2: S1V2-72 (antibody, V domains shown)
VH: QVQLVQSGAELKKPGASVKVSCKASGYTFTGNYIHWMRQVPGQGLEWMGWINPRTGDTHHAQKFQGRVDMTRDTSINTAYLELTRLESDDTALYYCARCVFATSQFDPWGQGTLVTVSS
VL: QSALTQPASVSGSPGQSITISCTGTNSDIGSHNLVSWYQQHPGKAPKVMIYDDSKRPSGVSNRFSGSKSGSTASLTISGLQSEDEADYYCCSYAGSSNWVFGGGTKLTLL
Turning to B2, the binding result in the assay with B/MY04 N135R EHA2 [2] is “no binding”.

B3: 351-52 (antibody, V domains shown)
VH: QVQLAQSGAEVRKPGASVKVSCKASGYTFTDYYIHWVRQAPGQGLEWMGWINPDSGRTNYAQRFQGRVSMTSDTSISTAYMDLSRLRSDDTAVYFCAREGAHNYQHFDHWGQGTLVTVSA
VL: EIVLTQSPDTLSLSPGESATLFCRASQSVRSSYLAWYQQTPGQAPRLLIYGASSRATGIPDRFSGSGSGTDFTLTISRLEPEDFAVYYCQQFGRSSWTFGQGTKVEIK
Take B3: the binding result with B/MY04 N135R EHA2 [1] is given as “no binding”.

B4: M94 (antibody, V domains shown)
VH: QVQLVESGAEVKRPGASVKVACKASEYRFAASYIHWVRQAPGQGLEWMGWINLNSGDTKSSQKFQGWVTLTRDTSINTVYMEMTNLKFDDTAIYYCAKIILGGGGLDVWGQGTTVTVSS
VL: QSVLTQPRSVSGSLGQSVTISCSGTSTDVGSYEFVSWYQHHPGKAPKLIIYDVSKRPSGVPDRFSGSKSGNTASLAVSGLQSDDEADYYCSSYADTSNTWVFGGGTKLTVL
For the molecule B4, in the assay with B/MY04 N135R EHA2 [1], the binding result is listed as “no binding”.

These data come from patent US20250084152A1 (DUKE UNIVERSITY, published 2025).
